T1: Human LAG3 ECD-Fc (human, UniProt P18627 23-450)
T1 construct: extracellular domain; 23-450 is stated only for the immunogen; also called recombinant human LAG3 extracellular domain fused to human Fc; hLAG3-hlgFc; not shown: Fc
T1 sequence (looked up): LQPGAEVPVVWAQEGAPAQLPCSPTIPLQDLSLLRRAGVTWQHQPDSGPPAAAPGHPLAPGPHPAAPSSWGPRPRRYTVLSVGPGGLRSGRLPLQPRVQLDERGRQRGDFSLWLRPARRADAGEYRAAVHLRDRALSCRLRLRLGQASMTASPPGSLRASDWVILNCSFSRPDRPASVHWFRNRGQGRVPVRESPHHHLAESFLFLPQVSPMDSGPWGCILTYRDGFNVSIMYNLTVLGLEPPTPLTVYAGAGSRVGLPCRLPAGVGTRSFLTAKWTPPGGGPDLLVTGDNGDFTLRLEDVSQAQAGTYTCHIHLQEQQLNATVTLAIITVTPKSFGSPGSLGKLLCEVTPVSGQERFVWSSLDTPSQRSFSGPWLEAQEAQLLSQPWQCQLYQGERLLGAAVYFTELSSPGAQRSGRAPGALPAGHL

T2: human LAG3 (ECD) (human, UniProt P18627 23-450)
T2 construct: range 23-450; the screening reagent is called only 'human LAG3 (ECD)'; also called human LAG3 ECD protein
T2 sequence (looked up): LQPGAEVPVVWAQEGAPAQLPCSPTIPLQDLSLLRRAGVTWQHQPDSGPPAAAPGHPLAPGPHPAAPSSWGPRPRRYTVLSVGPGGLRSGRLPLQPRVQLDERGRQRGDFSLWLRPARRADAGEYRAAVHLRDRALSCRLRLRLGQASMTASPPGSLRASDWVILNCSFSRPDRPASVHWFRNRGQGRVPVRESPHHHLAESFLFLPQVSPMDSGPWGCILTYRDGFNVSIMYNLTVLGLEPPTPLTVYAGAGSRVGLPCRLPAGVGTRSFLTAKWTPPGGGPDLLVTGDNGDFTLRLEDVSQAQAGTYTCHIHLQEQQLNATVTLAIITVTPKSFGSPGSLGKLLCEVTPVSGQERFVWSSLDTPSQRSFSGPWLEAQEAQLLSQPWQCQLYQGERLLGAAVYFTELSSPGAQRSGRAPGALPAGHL


What was measured:
[1] = molecular target: T3, human PD1 expressed on the surface of CHO cells (human, UniProt Q15116 25-288); test: ligand blocking on PD1-expressing CHO cells, competitor biotin-PD-L1
T3 construct: whole, on cells; also called PD1 expressing CHO cells
Description: (§1) The mixture was incubated for 1 hour at 37 degrees celsius. […] Percentage inhibition values were calculated in Excel and curve fitting was done with GraphPad Prism. Data points of the curve are mean values of triplicate measurements.

[2] = molecular target: T3, human PD1 expressed on the surface of …; test: ligand blocking on PD1-expressing CHO cells, competitor biotin-PD-L2
Description: as §1

human PD1 ECD = molecular target: T4, human PD1 ECD (human, UniProt Q15116 21-170); test: SPR (ProteOn XPR36), antibody captured on Protein A/G, PD1 ECD as analyte, 1:1 Langmuir fit
T4 construct: range 21-170; also called recombinant monomeric human PD1; recombinant human PD1
Description: Binding affinities to recombinant monomeric human PD1 were measured by SPR using a ProteOn XPR36 instrument. […] Human PD1 ECD was injected over the captured antibodies for 600 sec at a flowrate of 30 ul/min and a dissociation for 1200 sec.

[3] = molecular target: T3, human PD1 expressed on the surface of …; test: blocking assay on cells: biotin-labelled human PD-L1 binding to PD1-expressing CHO cells, Europium-streptavidin fluorescence, % inhibition against antibody concentration [A]
Description: as §1

[4] = molecular target: T3, human PD1 expressed on the surface of …; test: blocking assay on cells: biotin-labelled human PD-L2 binding to PD1-expressing CHO cells, Europium-streptavidin fluorescence, % inhibition against antibody concentration [D]
Description: as §1

[5] = molecular target: T3, human PD1 expressed on the surface of …; test: blocking assay on cells: biotin-labelled human PD-L1 binding to PD1-expressing CHO cells, Europium-streptavidin fluorescence, % inhibition against antibody concentration [B]
Description: as §1

[6] = molecular target: T3, human PD1 expressed on the surface of …; test: blocking assay on cells: biotin-labelled human PD-L2 binding to PD1-expressing CHO cells, Europium-streptavidin fluorescence, % inhibition against antibody concentration [E]
Description: as §1

Human LAG3 ECD-Fc [7] = molecular target: T1, Human LAG3 ECD-Fc; test: SPR, antibody captured on Protein A/G, LAG3 ECD-Fc as analyte, 1:1 Langmuir fit
Human LAG3 ECD-Fc [8] = molecular target: T1, Human LAG3 ECD-Fc; test: blocking assay by FACS: LAG3 ECD-Fc pre-incubated with the antibody, then binding to MHC II on Raji cells detected with PE anti-human IgG, % inhibition against antibody concentration
human LAG3 (ECD) = molecular target: T2, human LAG3 (ECD); test: hybridoma screening

T4 sequence (Q15116 21-170 limits assumed, form in doubt): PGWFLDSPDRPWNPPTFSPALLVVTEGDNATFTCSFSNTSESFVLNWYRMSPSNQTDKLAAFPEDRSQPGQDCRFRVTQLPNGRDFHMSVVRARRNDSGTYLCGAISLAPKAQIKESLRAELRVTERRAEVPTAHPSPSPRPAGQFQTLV
T3 sequence (Q15116 25-288): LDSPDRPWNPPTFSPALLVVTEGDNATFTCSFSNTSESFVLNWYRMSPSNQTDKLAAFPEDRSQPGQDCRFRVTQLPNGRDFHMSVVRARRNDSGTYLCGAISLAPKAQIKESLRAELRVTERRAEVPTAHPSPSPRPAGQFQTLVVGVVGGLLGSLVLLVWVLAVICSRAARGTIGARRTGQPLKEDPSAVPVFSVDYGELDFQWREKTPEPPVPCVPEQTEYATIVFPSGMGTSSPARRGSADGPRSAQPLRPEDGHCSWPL

Row | Binder | IC90 [1] | IC90 [2] | Kd (human PD1 ECD) | Kd (Human LAG3 ECD-Fc [7]) | IC50 (read off the curve) (Human LAG3 ECD-Fc [8]) | further results
1 | PD1-1 (antibody, human IgG4 S228P, kappa, V domains shown, Humanized derivative of murine 77E11; the HC is IgG4 (Pro), kappa light chain; also called anti-PD1 antibody PD1-1) VH: EVMLVESGGGLVQPGGSLRLSCTASGFTFSASAMSWVRQAPGKGLEWVAYISGGGGDTYYSSSVKGRFTISRDNAKNSLYLQMNSLRAEDTAVYYCARHSNVNYYAMDYWGQGTLVTVSS VL: EIVLTQSPATLSLSPGERATMSCRASENIDTSGISFMNWYQQKPGQAPKLLIYVASNQGSGIPARFSGSGSGTDFTLTISRLEPEDFAVYYCQQSKEVPWTFGQGTKLEIKR | 2.12 nM | 2.09 nM | 16.6 nM | – | – | IC50 (read off the curve) [3]: ~0.8 nM; IC50 (read off the curve) [4]: ~1 nM
2 | PD1-2 (antibody, human IgG4 S228P, kappa, V domains shown, Humanized derivative of murine 77E11; the HC is IgG4 (Pro), kappa light chain; also called anti-PD1 antibody PD1-2) VH: EVMLVESGGGLVQPGGSLRLSCTASGFTFSASAMSWVRQAPGKGLEWVAYISGGGGDTYYSSSVKGRFTISRDNAKNSLYLQMNSLRAEDTAVYYCARHSNPNYYAMDYWGQGTLVTVSS VL: EIVLTQSPATLSLSPGERATMSCRASENIDTSGISFMNWYQQKPGQAPKLLIYVASNQGSGIPARFSGSGSGTDFTLTISRLEPEDFAVYYCQQSKEVPWTFGQGTKLEIKR | 2.97 nM | 3.64 nM | 61.8 nM | – | – | IC50 (read off the curve) [3]: ~1 nM; IC50 (read off the curve) [4]: ~1 nM
3 | PD1-3 (antibody, human IgG4 S228P, kappa, V domains shown, Humanized derivative of murine 77E11; the HC is IgG4 (Pro), kappa light chain; also called anti-PD1-3; representative anti-PD1 antibody of the invention) VH: EVMLVESGGGLVQPGGSLRLSCTASGFTFSKSAMSWVRQAPGKGLEWVAYISGGGGDTYYSSSVKGRFTISRDNAKNSLYLQMNSLRAEDTAVYYCARHSNVNYYAMDYWGQGTLVTVSS VL: EIVLTQSPATLSLSPGERATMSCRASENIDVSGISFMNWYQQKPGQAPKLLIYVASNQGSGIPARFSGSGSGTDFTLTISRLEPEDFAVYYCQQSKEVPWTFGQGTKLEIKR | 1.68 nM | 1.95 nM | 6 nM | – | – | IC50 (read off the curve) [5]: ~0.8 nM; IC50 (read off the curve) [6]: ~1 nM
4 | LAG3-4 (antibody, human IgG4 S228P, kappa, V domains shown, Humanized derivative of murine 496G6, human IgG4 (Pro) format, kappa; also called anti-LAG3 antibody LAG3-4) VH: QVTLVESGGGVVQPGRSLRLSCAFSGFSLSTSDMGVGWIRQAPGKGLEWVAHIWWDDVKRYNPALKSRFTISRDNSKNTLYLQMNSLRAEDTATYFCARIEDYGVSYYFDYWGQGTTVTVSS VL: DIVMTQSPSFLSASVGDRVTITCKASQDVSTAVAWYQQKPGKAPKLLIYSASYRYTGVPDRFSGSGSGTDFTLTISSLQPEDFATYYCQQHYSIPLTFGQGTKLEIKR | – | – | – | 0.1 nM | – | –
5 | LAG3-2 (antibody, human IgG4 S228P, kappa, V domains shown, Humanized derivative of murine 496G6, human IgG4 (Pro) format, kappa; also called anti-LAG3 antibody LAG3-2) VH: QVTLKESGPTLVKPTQTLTLTCSFSGFSLSTSDMGVGWIRQPPGKALEWLAHIWWDDVKRYNPALKSRLTITKDTSKNQVVLTMTNMDPVDTATYFCARIEDYGVSYYFDYWGQGTTVTVSS VL: DIQMTQSPSFLSASVGDRVTFTCKASQDVSTAVAWYQQKPGKAPKLLIYSASYRYTGVPDRFSGSGSGTDFTLTISSLQPEDFATYYCQQHYSIPLTFGQGTKLEIKR | – | – | – | 0.09 nM | ~0.7 nM | –
6 | LAG3-1 (antibody, human IgG4 S228P, kappa, V domains shown, Humanized derivative of murine 496G6, human IgG4 (Pro) format, kappa; also called representative anti-LAG3 antibody of the invention) VH: QVTLVESGGGVVQPGRSLRLSCAFSGFSLSTSDMGVGWIRQAPGKGLEWVAHIWWDDVKRYNPALKSRFTISRDNSKNTLYLQMNSLRAEDTAVYFCARIEDYGVSYYFDYWGQGTTVTVSS VL: DIQMTQSPSFLSASVGDRVSITCKASQDVSTAVAWYQQKPGKAPKLLIYSASYRYTGVPDRFSGSGSGTDFTLTISSLQPEDFATYYCQQHYSIPLTFGQGTKLEIKR | – | – | – | 0.125 nM | ~1 nM | –
7 | LAG3-3 (antibody, human IgG4 S228P, kappa, V domains shown, Humanized derivative of murine 496G6, human IgG4 (Pro) format, kappa; also called anti-LAG3 antibody LAG3-3) VH: QVTLVESGGGVVQPGRSLSLSCAFSGFSLSTSDMGVGWVRQPPGKGLEWVAHIWWDDVKRYNPALKSRFTISRDNSKNTLYLQMNSLRAEDTATYYCARIEDYGVSYYFDYWGQGTTVTVSS VL: DIQMTQSPSFLSASVGDRVTITCKASQDVSTAVAWYQQKPGKAPKLLIYSASYRYTGVPDRFSGSGSGTDFTLTISSLQPEDFATYYCQQHYSIPLTFGAGTKLEIKR | – | – | – | 0.12 nM | ~0.8 nM | –
8 | LAG3-5 (antibody, human IgG4 S228P, kappa, V domains shown, Humanized derivative of murine 496G6, human IgG4 (Pro) format, kappa; also called anti-LAG3 antibody LAG3-5) VH: QVTLKESGPTLVKPTQTLTLTCSFSGFSLSTSDMGVGWIRQPPGKALEWLAHIWWDDVKRYNPALKSRLTITKDTSKNQVVLTMTNMDPVDTATYFCARIVDYGVSYYFDYWGQGTTVTVSS VL: DIQMTQSPSFLSASVGDRVSITCKASQDVSTAVAWYQQKPGKAPKLLIYSASYRYTGVPDRFSGSGSGTDFTLTISSLQPEDFAVYYCQQHYSIPLTFGQGTKLEIKR | – | – | – | 0.07 nM | ~1 nM | –
9 | 496G6 (antibody, V domains shown, Murine monoclonal antibody from a hybridoma; also called murine progenitor antibody 496G6; monoclonal antibody produced by 496G6) VH: QVTLKESGPGILQPSQTLSLTCSFSGFSLSTSDMGVGWIRQPSGKGLEWLAHIWWDDVKRYNPALKSRLTISKDTSSSQVFLMIASVDTADTATYFCARIEDYGVSYYFDYWGQGTTLTVSS VL: DIVMTQSHKFMSTSVGDRVSFTCKASQDVNTAVAWYQQKPGQSPKLLIYSASYRYTGVPDRFTGSGSGTDFTFTISSVQAEDLALYYCQQHYSIPLTFGAGTKLELK | – | – | – | – | – | binding result (human LAG3 (ECD)): binds
